Assay results as given in publication PMC9063841, “Structural insights into choline-O-sulfatase reveal the molecular determinants for ligand binding” (Acta Crystallographica. Section D, Structural Biology, 2022).

Experiments:
[1] = target: wild-type Sinorhizobium (Ensifer) meliloti choline-O-sulfatase (Sinorhizobium (Ensifer) meliloti CECT4857) (UniProt O69787); assay: SEC; 100 ul samples of SmeCOSe (0.1-1 mg/ml, three concentrations) on a Tricorn Superdex 200 column, 20 mM Tris-HCl pH 8.0; mass estimated against standards
[2] = target: wild-type Sinorhizobium (Ensifer) meliloti choline-O-sulfatase (Sinorhizobium (Ensifer) meliloti CECT4857) (UniProt O69787); assay: dynamic light scattering; 20 uM (in protomer units), 20 mM Tris-HCl pH 8.0, 20 C; mass from the hydrodynamic radius assuming a spherical shape
SmeCOSe = target: T1, SmeCOSe (Sinorhizobium meliloti, UniProt O69787); assay: absorbance at […] nm (p-nitrophenol release); assay type: biochemical; conditions: pH 7.0
T1 construct: gene betC; full length, C-terminal His6 (pET-21b(+), plasmid pSERQF5), E. coli BL21(DE3); homotetramer, about 201 kDa; Cys54 is formylglycine in wild type; natural difference at residue 105 (printed F105L against strain GR4 CP003933.2, but L105F)

Row | stoichiometry N [1] | stoichiometry N [2] | Km (SmeCOSe) [mM] | Compound
1 | 4 | 4 |  | wild-type Sinorhizobium (Ensifer) meliloti choline-O-sulfatase (from UniProt O69787 2-512) (enzyme)
2 |  |  | 45.7 ± 12.5 | O=[N+]([O-])c1ccc(OS(=O)(=O)O)cc1 [pNPS]
